From publication PMC9599836, “Comparative Analysis of Mesophilic YqfB-Type Amidohydrolases” (Biomolecules, 2022)

Columns and labels:
Experiment in all cases: purified protein
Conditions in all cases: 20 mM Tris-HCl, pH 7.5, 22 °C, 0.025-0.2 mM ac4C
purified protein [1] = substrate: CC(=O)Nc1ccn([C@@H]2O[C@H](CO)[C@@H](O)[C@H]2O)c(=O)n1; type: biochemical, Buttiauxella agrestis
purified protein [2] = substrate: CC(=O)Nc1ccn([C@@H]2O[C@H](CO)[C@@H](O)[C@H]2O)c(=O)n1
purified protein [3] = substrate: CC(=O)Nc1ccn([C@@H]2O[C@H](CO)[C@@H](O)[C@H]2O)c(=O)n1; type: biochemical, Shewanella loihica

B1: BagYqfB (Buttiauxella agrestis ATCC 33320) (protein)
chain: MNDITFFQRFESDIVAGRKTITLRDVSESHFIPGQQLRVGRYEDDVYFCTIEVVSVTPVALEKLTDEHARQENMTLPELKEVIGEIYPGLTELYAIVFRLLTKSDKRVL
notes: 109 a.a; pLATE31 expression vector, E. coli HMS174 ΔpyrF ΔyqfB host
Purified protein [1]
  Km: (3.6 ± 0.8) × 10^-5 M
  kcat: 154 ± 11 s⁻¹
  kcat/Km: 4.3e+06 ± 700000 M⁻¹ s⁻¹

B2: KpnYqfB (Klebsiella pneumoniae subsp. pneumoniae MGH 78578) (protein)
chain: MQANDITFFQRFQDDILAGRKTITIRDAAESHFKPGDVLRVGRYEDDGYFCTIAVTATSTVTLDTLTEQHAQQENMTLGQLRQVISDIYPGESQFYVIEFKTL
Purified protein [2]
  Km: (4.6 ± 0.8) × 10^-5 M
  kcat: 216 ± 2 s⁻¹
  kcat/Km: 4.8e+06 ± 800000 M⁻¹ s⁻¹

B3: SloYqfB (Shewanella loihica PV-4) (protein)
chain: MTPLTYDGKITFFERFEADILSGAKTITLRDESESHFRVGDRLSVSTFETGRHFCDIQVVRVEELAFEALNSRHAVQENMTLEQLKAVITEIYGEIDTLYLIEYRLL
notes: pLATE31 expression vector, E. coli HMS174 ΔpyrF ΔyqfB host
Purified protein [3]
  Km: (1 ± 0.2) × 10^-4 M
  kcat: 441 ± 37 s⁻¹
  kcat/Km: 4.3e+06 ± 500000 M⁻¹ s⁻¹
